Reference: a protein production outcome set (Wang et al. 2014)

Assay: label from the status in PepcDB records

Protein production, failed:
MNPTTLADVDTVIINANILTLDRDCPHAQAIAFAAGRILALGTTQELSPLAGRAATVVDARGSTLLPGFIDSHSHLMFGGVVAQALDLTEAACLSDLLDMVRSRAQSTPEGEWIRGYGVAAGRLKEKRYPTRQELDQVSGGRPVWLAEDSFHASLVNSKAFRMLEIPLSTPGVELAADGSPTGAFLNDAANVPARQRVFGFISDDEARQMLQHVTQLGATRGVTTVHAFEGSRMSADRDIELLMRFRHELPIHVVPYYETFDVERAMQLGVSGVGGCGRNCLDGMPNIQTAAMVDPYCCSEERGSLFQESIKLHNFVIAAFERGMQVGMHAMGDAAIEQLLATYERAIEETGRTDLRPRIEHFHVPSRDHVRRAADLGVGLAVQPIFTHLWGGRDGIFFERLGERRYKRIDTYREILDSGAIASCGADLPVHPADPLRWIQLLVDNQIDRDQSVSMTEAIRMCTYNGAWLGFQESETGTLAVSKAADAVMLGRDPHQCMPHEIAAIPILKTLGGKLVFESSRPLEHHHHHH
MNQDLSQTFLAITRNSTDLEWLQGALAPLGQVVGADGSLDELLALVDVTFANLVFVGLDREHVVAQAALIEGALEAKPMLAIVALGDGMDNQLVLNAMRAGARDFVAYGSRSSEVAGLVRRLSKRLPAVTPNTQLGGLTVLYGAQGDGDGALLASHLALVVQKSGQQTLLLDLGLPRGDSLALLGLESSFHFGDALRHLRRLDATLIDSAFTSAEAGLRILAYASHDAPLEHTSAAELYMLLSALRQHFQHIVVNLVGQPDSEALRTFVSHCDKLLWCTDQNVLDCRRNLAVLNHWREKGMKLEHARLLVDRYLRTVAPDSETLGKTFGLEVIAVLAYSPEVRLNAKNQGVTLFELAPREALTQSLRTLGERLAKRSQGLPKPKAGWLNRIMGGRLEHHHHHH
MNQEIAYLHPVKTARALVLVYLCFSVPIVAMGLFVAFIRYGDLPGITVFTALILNALIGFGLLWLGCKAYNWVAARFGGIEVHVRELTPEDRQ
MNQFGPSALINLSNFSSIKPEPASTPPQGSMANSTAVVKIPGTPGAGGRLSPENNQVLTKKKLQDLVREVDPNEQLDEDVEEMLLQIADDFIESVVTAACQLARHRKSSTLEVKDVQLHLERQWNMWIPGFGSEEIRPYKKACTTEAHKQRMALIRKTTKK
MNQHSFSLDDYYKSLINLDGMNDYYRYFIGLNGIIFPLLLIMSYPSVINLATKASFLIMLVGACCVLIDNWNRKSIAYRLYVELYENEYLANSDYKAGKVFVNLIFYVVSIYLISGVFGVL
MNQKDVKLTVFSSDEKSFMVTATLVEKAGHAFLINSKFTQSDSKEIVEYLKKNNLSLDKIFIIHGDPDYYFGLESIKAVYPEAIAYATESTVEHIVHSVLGKLKVWKDALGENAPSNVVLPQVFKEKAIDFQGLTFELVGLEHYRTSLFNKELKVLIGGIDVFNEIHVFLADTSSKAAMEAWIENLKVLQALHADIIVPSHGSIEKSLNNQALTATMDYLRTAVQASEESGTSKDFVAKLEAAYPDYANKGVLELSAKVVTKELEHHHHHH
MNQRIETITALLDEKKAFDITHIDLSKTPYLVEDVIIATTLANKHALSLLDALKNTLKPLGEVFYQIDESNEEWIILDLGDLMIHLFTEECRKKFDLEGFLNAYKRGLPYQNA
MNQTFIYYTVLFLIIFITISNLVENYRYSPKKIKNIIGIAFLLQIIRIVSLIALALVSDQRYISLFKYVGFLDIIYIPLMALIAFYILLRSDKINFQFFKFAPMVLTGFYIGVITIFKPFFKMSWEYGYVITTEKQILLKSIYILFLVAILSFLILFKKENHSDKKGIVFLGVTLAFIIIENSLELLGVRFLNGAIISELILCILGFYIVLTFKKNRISIRDCIKS
MNRAFSRKKDKTWMHTPEALSKHFIPYNAKFLGSTEVEQPKGTEVVRDAVRKLKFARHIKKSEGQKIPKVELQISIYGVKILEPKTKEVQHNCQLHRISFCADDKTDKRIFTFICKDSESNKHLCYVFDSEKCVSIPDVVGWFVLFYKPGIVLLLALAKYLKMNNFL
MNRARTNDRRRAGDGPRRSRSAGRPQNSGRRPAAAPQGGEFALPKTITPALPAVETFAELDLPARMLAALGDQGVTEPFPIQAATLPNSLAGRDVLGRGRTGSGKTLAFGLALLARTAGKRAEPRRPLALVLVPTRELAQQVTDALTPYARAVGLRSATVVGGMSIGRQAGALRSGAEVVVATPGRLKDLIDRGDCALGDVTITVLDEADQMTDMGFMPQVTALLDQVAADGQRMLFSATLDRNVDKLVRRYLTDPVVHSVDPSAGAVTTMEHHVLHVQDEDKQRATIEIAARDGRVIMFLDTKHRVDRLVKHLLKSGVRAAGLHGGKSQPQRTRTLAQFKDGQVTALVATNVAARGIHVDNLDLVVNVDPPGDHKDYLHRGGRTARAGESGSVVTLVTPDQRREMTRLMSLAGITPQVTPVRSGEAELARITGAQTPSGVPVVITAPVVERPRRAAAGAGSPSRGRRGRSAQGRSGGQGTGTQARTGAAQSRTAGQSRTAAQGRPTGESPRRRPRRQSTGGSTGSAA
MNRFNYIGMLAYVALSMSSCDDSFDVSSKADGVLAVSQEGFNTLQSYNVGEKYTADLWIQQGGLKSTASVVSFSVDKALLDSMNIADGTSYELLPADCYQLTKSSVDIPANERLLKGELTYDPAKIQELSGYDHLKYVLPLRATSSGMPFVSGRSVLLLGFKVSEPIVTIMNAGVEEINLAEVKELPVQIGVPFTNKWEISCRLESRQSVIDAYNTAHGTYFSMLPSDAYVTPETPILHSGVNQVTATYKLKDDILPGNYMLPVQIAEVTSDATIRADKDVYAAYSIIKEGDKLSKTDWKIVSFTTEEASGEGSNNGHAKHLIDGNIETFWHSRWQGGSDPLPYEIIIDMNHRVKIAQIELLPRGRGSNNPIKVVRFEASEDGTNWESIGQFGFTNQDAALKYYVKSSTARYIKLVIPDGVGNGTVAAIRELDVRGTVVN
MNRKKLQKLTDTLTKNCKHFNKFEVNCLIKLFYDLVGGVERQGLVVGLDRNAFRNILHVTFGMTDDMIMDRVFRGFDKDNDGCVNVLEWIHGLSLFLRGSLEEKMKYCFEVFDLNGDGFISKEEMFHMLKNSLLKQPSEEDPDEGIKDLVEITLKKMDHDHDGKLSFADYELAVREETLLLEAFGPCLPDPKSQMEFEAQVFKDPNEFNDM
MNRLDQLGIRINLICNVFDKWIGQQDLNYNLFTVLYTLATEGSRTQKHIGEEWSLPKQTVSGVCKTLAGQGLIEWQEGEQDRRERLLSLTEKGKVHAAPLTENAQEFSDKVFSTFGDKRTTRLFADLDALAEVMEKTISENKK
MNRNDITILSQQRESVLATNKVLRNTYLLLSLTFIFSALTAYVAFISGARPMNPLLMIVGVYGLMFLTQALRNSVWGLVSVFAFTGFLGYTIGPLLNYYITGFSNGPQIVATALGGTGMIFFALSGYALTTKKDFSYLGGFLFVGVMVALLAMIAGIFIQIPALQLVISAAFVLISSGLILLQTSAIIHEGETNYIMATIGLFVSIYNLFVSLLNLLSAFSGRD
MNRSLWTQWSIASVIVLFCAFCLYSPAHAGVDEDLVRAVEDNKTHRVRDLLTKGASPDARDLQSETALMLAARNKNPEMGGLLLEAGANPDLRNKYGETATMLACYYGQLDLVKRLYAKGAKIDHDGWNPLIYAASKGYKEIVEFLLNYGVRIDAATDNGTTALMMAVRGNHYDTVELLLKHGANALIRNEADGTALGWARKQGHTSIVQLLTRNGTAD

Protein production, not failed:
MNQQPIKIAVFGLGGVGGYYGAMLALRAAATDGLLEVSWIARGAHLEAIRAAGGLRVVTPSRDFLARPTCVTDNPAEVGTVDYILFCTKDYDMERGVAEIRPMIGQNTKILPLLNGADIAERMRTYLPDTVVWKGCVYISARKSAPGLITLEADRELFYFGSGLPEQTDDEVRLAELLTAAGIRAYNPTDIDWYIMKKFMMISVTATATAYFDKPIGSILTEHEPELLSLLEEVAELFRAKYGQVPDDVVQQLLDKQRKMPPESTSSMHSDFLQGGSTEVETLTGYVVREAEALRVDLPMYKRMYRELVSRTAN
MNRGVIVTGGGHGIGKQICLDFLEAGDKVCFIDIDEKRSADFAKERPNLFYFHGDVADPLTLKKFVEYAMEKLQRIDVLVNNACRGSKGILSSLLYEEFDYILSVGLKAPYELSRLCRDELIKNKGRIINIASTRAFQSEPDSEAYASAKGGIVALTHALAMSLGPDVLVNCIAPGWINVTEQQEFTQEDCAAIPAGKVGTPKDISNMVLFLCQQDFITGETIIVDGGMSKRMIYHGDWNWFYKIDK
